The values below come from paper doi:10.1101/2025.08.25.672233.

The target of this experiment is soluble mouse MXRA8-Fc (UniProt Q9DBV4). The following applies: read off a plot; for other: 1/IC50: mean of three biological replicates, parent: est. 2.6; for screen value: parent: est. 0.
UniProt Q9DBV4, sequence (Q9DBV4 22-336): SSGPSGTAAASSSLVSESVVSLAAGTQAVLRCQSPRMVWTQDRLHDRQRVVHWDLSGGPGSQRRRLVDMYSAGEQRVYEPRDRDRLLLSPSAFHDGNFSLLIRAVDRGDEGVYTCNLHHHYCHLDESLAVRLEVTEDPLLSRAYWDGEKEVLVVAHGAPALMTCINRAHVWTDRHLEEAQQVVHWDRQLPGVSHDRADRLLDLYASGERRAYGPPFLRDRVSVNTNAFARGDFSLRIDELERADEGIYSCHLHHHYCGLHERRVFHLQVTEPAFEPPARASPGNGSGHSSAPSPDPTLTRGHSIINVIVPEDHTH

Turning to “CHIKV envelope proteins (E3-E2-6K-E1) from the 181/25 strain, unmutated, on pseudovirus E1:D158R”, the other: 1/IC50 came to 15 and the screen value stood at 1.9.

As to “CHIKV envelope proteins (E3-E2-6K-E1) from the 181/25 strain, unmutated, on pseudovirus E1:K132N”, the other: 1/IC50 was 0.3 and the screen value is -2.6.

Regarding “CHIKV envelope proteins (E3-E2-6K-E1) from the 181/25 strain, unmutated, on pseudovirus E1:K157C”, the other: 1/IC50 came to 0.71 and the screen value was -1.7.

As for “CHIKV envelope proteins (E3-E2-6K-E1) from the 181/25 strain, unmutated, on pseudovirus E2:A157S”, the other: 1/IC50 worked out at 9.4 and the screen value was determined as 0.85.

Turning to “CHIKV envelope proteins (E3-E2-6K-E1) from the 181/25 strain, unmutated, on pseudovirus E2:E24Y”, the other: 1/IC50 came out at 1.1 and the screen value was 1.9.

For the substance “CHIKV envelope proteins (E3-E2-6K-E1) from the 181/25 strain, unmutated, on pseudovirus E2:H18A”, the other: 1/IC50 stood at 3.2 and the screen value came to 1.6.

“CHIKV envelope proteins (E3-E2-6K-E1) from the 181/25 strain, unmutated, on pseudovirus E2:I121E”: the other: 1/IC50 amounted to 0.05 and the screen value is -3.1.

In the case of “CHIKV envelope proteins (E3-E2-6K-E1) from the 181/25 strain, unmutated, on pseudovirus E2:K120D”, the other: 1/IC50 worked out at 0.17 and the screen value is -2.5.

As for “CHIKV envelope proteins (E3-E2-6K-E1) from the 181/25 strain, unmutated, on pseudovirus E2:K189Y”, the other: 1/IC50 stood at 140 and the screen value turned out to be 2.4.

On to “CHIKV envelope proteins (E3-E2-6K-E1) from the 181/25 strain, unmutated, on pseudovirus E2:Q158T”, for which the other: 1/IC50 was found to be 2.1 and the screen value is -0.15.

Take “CHIKV envelope proteins (E3-E2-6K-E1) from the 181/25 strain, unmutated, on pseudovirus E2:R119K”: the other: 1/IC50 turned out to be 0.05 and the screen value is -3.5.

As to “CHIKV envelope proteins (E3-E2-6K-E1) from the 181/25 strain, unmutated, on pseudovirus E2:R178S”, the other: 1/IC50 is 1 and the screen value was -2.3.
